Measurements reported in publication PMC12486381 (Molecular Biology and Evolution, 2025).
Several values for one entry are separate records, joined by “and”; a condition that tells them apart may be missing. Identical values can stand only once. Like-named read-outs stand apart in the source and are kept apart here. One block for each compound: values may come before it.

How the values were obtained:
BBD029md-00326_13692 = test: initial rate of NADPH and DHF depletion at […] nm, Michaelis-Menten fit; format: biochemical; conditions: 50 mM potassium phosphate pH 7, 27 °C
A0A839U7A6 = test: as above; format: biochemical, Phyllobacterium trifolii; conditions: 50 mM potassium phosphate pH 7, 27 °C
A0A5E7Z8W7 = test: as above; format: biochemical, Hoeflea sp. EC-HK425; conditions: 50 mM potassium phosphate pH 7, 27 °C
[1] = system: DfrB-TS (BBD027md-00173_03685); test: as above; format: biochemical; conditions: read-out: K M ^DHF; DfrB domain; 50 µM NADPH, 50 mM potassium phosphate pH 7, 27 °C
A0A0N7CEH1 = test: as above; format: biochemical, Skermania phage SPI1; conditions: 50 mM potassium phosphate pH 7, 27 °C
UPI001402A2DF = test: as above; format: biochemical; conditions: 50 mM potassium phosphate pH 7, 27 °C
[2] = target: DfrB1 (type B dihydrofolate reductase 1); test: SEC
DfrB homolog A0A0N7CEH1 = test: SEC
DfrB homolog A0A1M7UVF4 = test: SEC
DfrB homolog A0A1R3X8F5 = test: SEC
DfrB homolog A0A5E7Z8W7 = test: SEC
DfrB homolog A0A6J5PTB3 = test: SEC
DfrB homolog A0A345GTK3 = test: SEC
DfrB homolog A0A839U7A6 = test: SEC
[3] = target: DfrB homolog BBD029md-00326_13692; test: SEC
DfrB homolog E2SFM2 = test: SEC
[4] = target: DfrB homolog UPI001402A2DF; test: SEC
[5] = target: DfrB-TS (BBD027md-00173_03685); test: SEC
[6] = read-out: K M ^DHF, 50 µM NADPH
[7] = read-out: K M ^NADPH, 50 µM DHF

Chain of DfrB1 (type B dihydrofolate reductase 1) (P00383 whole entry): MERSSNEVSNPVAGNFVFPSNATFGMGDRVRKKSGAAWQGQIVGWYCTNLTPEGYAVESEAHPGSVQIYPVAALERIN

Km (BBD029md-00326_13692; [6]): 36 ± 4 µM
Km (A0A839U7A6; [6]): 44 ± 5 µM
Km (A0A5E7Z8W7; [6]): 7 ± 4 µM
Km [1]: 28 ± 3 µM
Km (A0A0N7CEH1; [6]): 6 ± 2 µM
Km (UPI001402A2DF; [6]): 130 ± 20 µM
Compound: Nc1nc2c(c(=O)[nH]1)N=C(CNc1ccc(C(=O)N[C@@H](CCC(=O)O)C(=O)O)cc1)CN2 [DHF]

Km (BBD029md-00326_13692; [7]): 20 ± 10 µM
Km (A0A839U7A6; [7]): 10 ± 5 µM
Km (A0A5E7Z8W7; [7]): 18 ± 2 µM
Km (A0A0N7CEH1; [7]): 5.7 ± 0.6 µM
Km (UPI001402A2DF; [7]): 11 ± 1 µM
Compound: NC(=O)C1=CN([C@@H]2O[C@H](COP(=O)(O)OP(=O)(O)OC[C@H]3O[C@@H](n4cnc5c(N)ncnc54)[C@H](OP(=O)(O)O)[C@@H]3O)[C@@H](O)[C@H]2O)C=CC1 [NADPH]

Compound: DfrB1 (type B dihydrofolate reductase 1) (enzyme)
stoichiometry N [2]: 4

stoichiometry N (DfrB homolog A0A0N7CEH1): 4
Compound: DfrB homolog A0A0N7CEH1 (enzyme)

stoichiometry N (DfrB homolog A0A1M7UVF4): 2
Compound: DfrB homolog A0A1M7UVF4 (natural protein)

stoichiometry N (DfrB homolog A0A1R3X8F5): 4
Compound: DfrB homolog A0A1R3X8F5 (natural protein)

stoichiometry N (DfrB homolog A0A5E7Z8W7): 4
Compound: DfrB homolog A0A5E7Z8W7 (enzyme)

stoichiometry N (DfrB homolog A0A6J5PTB3): 4
Compound: DfrB homolog A0A6J5PTB3 (enzyme)

stoichiometry N (DfrB homolog A0A345GTK3): 2
Compound: DfrB homolog A0A345GTK3 (natural protein)

stoichiometry N (DfrB homolog A0A839U7A6): 4
Compound: DfrB homolog A0A839U7A6 (enzyme)

stoichiometry N [3]: 4
Compound: DfrB homolog BBD029md-00326_13692 (enzyme)

stoichiometry N (DfrB homolog E2SFM2): 4
Compound: DfrB homolog E2SFM2 (natural protein)

stoichiometry N [4]: 4
Compound: DfrB homolog UPI001402A2DF (enzyme)

Compound: DfrB-TS (BBD027md-00173_03685) (enzyme)
stoichiometry N [5]: 4 and 8
